Patent US20260167699A1 (Chugai, published 2026)

How the values were obtained:
Assay in all cases: SPR, vs GpH7-A5/GpH7-B3/GpL16-k0 =100
[1] = target: T1, FcγRIIa(H) extracellular domain, His-tagged (human, UniProt P12318 34-217)
T1 construct: extracellular domain; also called 2aH
T1 sequence: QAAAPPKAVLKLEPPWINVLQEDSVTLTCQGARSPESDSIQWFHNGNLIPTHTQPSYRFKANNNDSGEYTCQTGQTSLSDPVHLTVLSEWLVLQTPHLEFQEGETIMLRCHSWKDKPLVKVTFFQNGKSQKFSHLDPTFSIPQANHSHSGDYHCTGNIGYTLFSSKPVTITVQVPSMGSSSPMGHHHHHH

[2] = target: T2, FcγRIIa(R) extracellular domain, His-tagged (human, UniProt P12318 34-217)
T2 construct: extracellular domain; also called 2aR
T2 sequence: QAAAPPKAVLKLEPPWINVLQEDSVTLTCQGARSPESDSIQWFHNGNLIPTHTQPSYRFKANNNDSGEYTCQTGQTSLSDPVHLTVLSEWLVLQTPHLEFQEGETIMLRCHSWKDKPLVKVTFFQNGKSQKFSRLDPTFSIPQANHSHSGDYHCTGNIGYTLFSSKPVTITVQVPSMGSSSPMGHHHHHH

[3] = target: T3, FcγRIa extracellular domain, His-tagged (human, UniProt P12314 16-292)
T3 construct: extracellular domain; also called 1a

[4] = target: T4, FcγRIIb extracellular domain, His-tagged (human, UniProt P31994 43-217)
T4 construct: extracellular domain; also called 2b
T4 sequence: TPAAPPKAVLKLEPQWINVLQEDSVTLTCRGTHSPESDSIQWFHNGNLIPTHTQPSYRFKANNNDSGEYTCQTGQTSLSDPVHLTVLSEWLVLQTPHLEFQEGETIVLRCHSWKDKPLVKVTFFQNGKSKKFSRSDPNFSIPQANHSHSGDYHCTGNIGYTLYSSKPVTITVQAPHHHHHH

[5] = target: T5, FcγRIIIa extracellular domain, His-tagged (human, UniProt P08637 17-208)
T5 construct: extracellular domain; also called 3a
T5 sequence (P08637 other isoform, or with tags, fused parts or gaps): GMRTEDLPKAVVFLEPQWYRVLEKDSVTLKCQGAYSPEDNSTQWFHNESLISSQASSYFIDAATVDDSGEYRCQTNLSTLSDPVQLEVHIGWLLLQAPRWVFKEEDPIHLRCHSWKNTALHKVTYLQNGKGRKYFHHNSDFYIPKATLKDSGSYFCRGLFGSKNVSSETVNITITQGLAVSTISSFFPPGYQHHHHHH

T3 sequence (P12314 other isoform, or with tags, fused parts or gaps): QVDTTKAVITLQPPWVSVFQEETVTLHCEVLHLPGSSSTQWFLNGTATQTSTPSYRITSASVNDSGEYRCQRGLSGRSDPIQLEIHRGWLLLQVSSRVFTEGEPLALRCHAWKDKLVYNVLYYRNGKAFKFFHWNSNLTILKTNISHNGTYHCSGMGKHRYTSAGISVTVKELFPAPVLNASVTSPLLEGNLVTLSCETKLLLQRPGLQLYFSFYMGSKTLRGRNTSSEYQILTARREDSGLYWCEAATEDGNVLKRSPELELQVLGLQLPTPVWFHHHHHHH

B1: GpH7-A5/GpH7-B3 variant L235_15Y/GpL16-k0 (antibody, human IgG1, kappa)
heavy 1: not shown
heavy 2: not shown
light: DIVMTQSPLSLPVTPGEPASISCQASESLVHSNRNTYLHWYLQKPGQSPQLLIYKVSNRFSGVPDRFSGSGSGTDFTLKISRVEAEDVGVYYCSQNTHVPPTFGQGTKVEIERTVAAPSVFIFPPSDEQLKSGTASVVCLLNNFYPREAKVQWKVDNALQSGNSQESVTEQDSKDSTYSLSSTLTLSKADYEKHKVYACEVTHQGLSSPVTKSFNRGEC
[1]
  He/Con 2aH: 135 % of control
[2]
  He/Con 2aR: 150 % of control
[3]
  He/Con 1a: 100 % of control
[4]
  He/Con 2b: 170 % of control
[5]
  He/Con 3a: 77.8 % of control

B2: GpH7-A5/GpH7-B3 variant P238_09D/GpL16-k0 (antibody, human IgG1, kappa)
heavy 1: not shown
heavy 2: not shown
light: DIVMTQSPLSLPVTPGEPASISCQASESLVHSNRNTYLHWYLQKPGQSPQLLIYKVSNRFSGVPDRFSGSGSGTDFTLKISRVEAEDVGVYYCSQNTHVPPTFGQGTKVEIERTVAAPSVFIFPPSDEQLKSGTASVVCLLNNFYPREAKVQWKVDNALQSGNSQESVTEQDSKDSTYSLSSTLTLSKADYEKHKVYACEVTHQGLSSPVTKSFNRGEC
[1]
  He/Con 2aH: 84.7 % of control
[2]
  He/Con 2aR: 140 % of control
[3]
  He/Con 1a: 99 % of control
[4]
  He/Con 2b: 224 % of control
[5]
  He/Con 3a: 100 % of control

B3: GpH7-A5/GpH7-B3 variant P238_10E/GpL16-k0 (antibody, human IgG1, kappa)
heavy 1: not shown
heavy 2: not shown
light: DIVMTQSPLSLPVTPGEPASISCQASESLVHSNRNTYLHWYLQKPGQSPQLLIYKVSNRFSGVPDRFSGSGSGTDFTLKISRVEAEDVGVYYCSQNTHVPPTFGQGTKVEIERTVAAPSVFIFPPSDEQLKSGTASVVCLLNNFYPREAKVQWKVDNALQSGNSQESVTEQDSKDSTYSLSSTLTLSKADYEKHKVYACEVTHQGLSSPVTKSFNRGEC
[1]
  He/Con 2aH: 74.6 % of control
[2]
  He/Con 2aR: 142 % of control
[3]
  He/Con 1a: 105 % of control
[4]
  He/Con 2b: 235 % of control
[5]
  He/Con 3a: 98.9 % of control

B4: GpH7-A5/GpH7-B3 variant L235_18N/GpL16-k0 (antibody, human IgG1, kappa)
heavy 1: not shown
heavy 2: not shown
light: DIVMTQSPLSLPVTPGEPASISCQASESLVHSNRNTYLHWYLQKPGQSPQLLIYKVSNRFSGVPDRFSGSGSGTDFTLKISRVEAEDVGVYYCSQNTHVPPTFGQGTKVEIERTVAAPSVFIFPPSDEQLKSGTASVVCLLNNFYPREAKVQWKVDNALQSGNSQESVTEQDSKDSTYSLSSTLTLSKADYEKHKVYACEVTHQGLSSPVTKSFNRGEC
[1]
  He/Con 2aH: 73.5 % of control
[2]
  He/Con 2aR: 77.3 % of control
[3]
  He/Con 1a: 95.2 % of control
[4]
  He/Con 2b: 62.7 % of control
[5]
  He/Con 3a: 65 % of control

B5: GpH7-A5/GpH7-B3 variant P271_02A/GpL16-k0 (antibody, human IgG1, kappa)
heavy 1: not shown
heavy 2: not shown
light: DIVMTQSPLSLPVTPGEPASISCQASESLVHSNRNTYLHWYLQKPGQSPQLLIYKVSNRFSGVPDRFSGSGSGTDFTLKISRVEAEDVGVYYCSQNTHVPPTFGQGTKVEIERTVAAPSVFIFPPSDEQLKSGTASVVCLLNNFYPREAKVQWKVDNALQSGNSQESVTEQDSKDSTYSLSSTLTLSKADYEKHKVYACEVTHQGLSSPVTKSFNRGEC
[1]
  He/Con 2aH: 88.4 % of control
[2]
  He/Con 2aR: 93.9 % of control
[3]
  He/Con 1a: 102 % of control
[4]
  He/Con 2b: 98.7 % of control
[5]
  He/Con 3a: 83.7 % of control

B6: GpH7-A5/GpH7-B3 variant L235_16H/GpL16-k0 (antibody, human IgG1, kappa)
heavy 1: not shown
heavy 2: not shown
light: DIVMTQSPLSLPVTPGEPASISCQASESLVHSNRNTYLHWYLQKPGQSPQLLIYKVSNRFSGVPDRFSGSGSGTDFTLKISRVEAEDVGVYYCSQNTHVPPTFGQGTKVEIERTVAAPSVFIFPPSDEQLKSGTASVVCLLNNFYPREAKVQWKVDNALQSGNSQESVTEQDSKDSTYSLSSTLTLSKADYEKHKVYACEVTHQGLSSPVTKSFNRGEC
[1]
  He/Con 2aH: 99.8 % of control
[2]
  He/Con 2aR: 110 % of control
[3]
  He/Con 1a: 92.7 % of control
[4]
  He/Con 2b: 87.8 % of control
[5]
  He/Con 3a: 57.1 % of control

B7: GpH7-A5/GpH7-B3 variant P238_15Y/GpL16-k0 (antibody, human IgG1, kappa)
heavy 1: not shown
heavy 2: not shown
light: DIVMTQSPLSLPVTPGEPASISCQASESLVHSNRNTYLHWYLQKPGQSPQLLIYKVSNRFSGVPDRFSGSGSGTDFTLKISRVEAEDVGVYYCSQNTHVPPTFGQGTKVEIERTVAAPSVFIFPPSDEQLKSGTASVVCLLNNFYPREAKVQWKVDNALQSGNSQESVTEQDSKDSTYSLSSTLTLSKADYEKHKVYACEVTHQGLSSPVTKSFNRGEC
[1]
  He/Con 2aH: 57.8 % of control
[2]
  He/Con 2aR: 147 % of control
[3]
  He/Con 1a: 104 % of control
[4]
  He/Con 2b: 221 % of control
[5]
  He/Con 3a: 61 % of control

B8: GpH7-A5/GpH7-B3 variant P238_08L/GpL16-k0 (antibody, human IgG1, kappa)
heavy 1: not shown
heavy 2: not shown
light: DIVMTQSPLSLPVTPGEPASISCQASESLVHSNRNTYLHWYLQKPGQSPQLLIYKVSNRFSGVPDRFSGSGSGTDFTLKISRVEAEDVGVYYCSQNTHVPPTFGQGTKVEIERTVAAPSVFIFPPSDEQLKSGTASVVCLLNNFYPREAKVQWKVDNALQSGNSQESVTEQDSKDSTYSLSSTLTLSKADYEKHKVYACEVTHQGLSSPVTKSFNRGEC
[1]
  He/Con 2aH: 81.8 % of control
[2]
  He/Con 2aR: 132 % of control
[3]
  He/Con 1a: 104 % of control
[4]
  He/Con 2b: 207 % of control
[5]
  He/Con 3a: 71.3 % of control

B9: GpH7-A5/GpH7-B3 variant L235_20W/GpL16-k0 (antibody, human IgG1, kappa)
heavy 1: not shown
heavy 2: not shown
light: DIVMTQSPLSLPVTPGEPASISCQASESLVHSNRNTYLHWYLQKPGQSPQLLIYKVSNRFSGVPDRFSGSGSGTDFTLKISRVEAEDVGVYYCSQNTHVPPTFGQGTKVEIERTVAAPSVFIFPPSDEQLKSGTASVVCLLNNFYPREAKVQWKVDNALQSGNSQESVTEQDSKDSTYSLSSTLTLSKADYEKHKVYACEVTHQGLSSPVTKSFNRGEC
[1]
  He/Con 2aH: 131 % of control
[2]
  He/Con 2aR: 152 % of control
[3]
  He/Con 1a: 95.9 % of control
[4]
  He/Con 2b: 168 % of control
[5]
  He/Con 3a: 73.8 % of control

B10: GpH7-A5/GpH7-B3 variant P271_01G/GpL16-k0 (antibody, human IgG1, kappa)
heavy 1: not shown
heavy 2: not shown
light: DIVMTQSPLSLPVTPGEPASISCQASESLVHSNRNTYLHWYLQKPGQSPQLLIYKVSNRFSGVPDRFSGSGSGTDFTLKISRVEAEDVGVYYCSQNTHVPPTFGQGTKVEIERTVAAPSVFIFPPSDEQLKSGTASVVCLLNNFYPREAKVQWKVDNALQSGNSQESVTEQDSKDSTYSLSSTLTLSKADYEKHKVYACEVTHQGLSSPVTKSFNRGEC
[1]
  He/Con 2aH: 123 % of control
[2]
  He/Con 2aR: 143 % of control
[3]
  He/Con 1a: 103 % of control
[4]
  He/Con 2b: 217 % of control
[5]
  He/Con 3a: 119 % of control

B11: GpH7-A5/GpH7-B3 variant P238_19Q/GpL16-k0 (antibody, human IgG1, kappa)
heavy 1: not shown
heavy 2: not shown
light: DIVMTQSPLSLPVTPGEPASISCQASESLVHSNRNTYLHWYLQKPGQSPQLLIYKVSNRFSGVPDRFSGSGSGTDFTLKISRVEAEDVGVYYCSQNTHVPPTFGQGTKVEIERTVAAPSVFIFPPSDEQLKSGTASVVCLLNNFYPREAKVQWKVDNALQSGNSQESVTEQDSKDSTYSLSSTLTLSKADYEKHKVYACEVTHQGLSSPVTKSFNRGEC
[1]
  He/Con 2aH: 54.5 % of control
[2]
  He/Con 2aR: 97.8 % of control
[3]
  He/Con 1a: 101 % of control
[4]
  He/Con 2b: 112 % of control
[5]
  He/Con 3a: 52.7 % of control
